Sequences and labels used below:
B1: (His)10-MBP-DotL(656-783)–IcmSW–LvgA (complex)
chain 1: GQNEPEPVEDIVEEEVEGALTIFSKLRIDPNAPPILVADKEVFSEPLLPINETRNQMITIERLAGAKDKYAGTVANELIKDFQIATSYPPEERDVIDVQELTGIIRDLSAKISAEREKANKKAAEELT
chain 2: MERDISKCMAKIAASMNAKFYLNDRFVSFDEVFSETGLLPAIAKRADQLCSLCLGYGLGATYDESEGALLGIRVVFDEVTPNVLRLLCMTDVMNELIQGGPSRDYTPLDELMYD
chain 3: MPDLSHEASAKYWFEYLDPMIYRVITFMESVENWTLDGNPELEEAMKQLGQELDDIEKIDLGLLAEEDKFIRIVGNIKSGRGLRLLQAIDTVHPGSASRVLIHAEETSLSSSDPAGFFLKRNIVFERLRLLSRVFCQYRLKLVLRALEGDE
chain 4: MADGDIEIKAGFVDTDLDDRKLTMIDDLNNPLAIVERVYLIWWHWADFHLHVISPHIDTITPAIVIEPELIPGSNDHEFVYSIHDSGSKLSTSKSQDMFSAGMSMCKLFYTIEKMVYILVERLKSGGVSMEAEVQIAFAGHEIAQRKAFESIINLPYNVVVTNFDPGIWGEKYLQNVKRLADKGYGYPPESPRKIYMHPVSSGTTARK
notes: copies: + + +

The target in one data set is VpdB(11-590) (Legionella pneumophila, UniProt Q5ZW60 11-590). In words: BLI. As to conditions: both partners purified.
A further data set concerns the target T1, SetA (Legionella pneumophila, UniProt Q5ZU30 1-644).
T1 sequence: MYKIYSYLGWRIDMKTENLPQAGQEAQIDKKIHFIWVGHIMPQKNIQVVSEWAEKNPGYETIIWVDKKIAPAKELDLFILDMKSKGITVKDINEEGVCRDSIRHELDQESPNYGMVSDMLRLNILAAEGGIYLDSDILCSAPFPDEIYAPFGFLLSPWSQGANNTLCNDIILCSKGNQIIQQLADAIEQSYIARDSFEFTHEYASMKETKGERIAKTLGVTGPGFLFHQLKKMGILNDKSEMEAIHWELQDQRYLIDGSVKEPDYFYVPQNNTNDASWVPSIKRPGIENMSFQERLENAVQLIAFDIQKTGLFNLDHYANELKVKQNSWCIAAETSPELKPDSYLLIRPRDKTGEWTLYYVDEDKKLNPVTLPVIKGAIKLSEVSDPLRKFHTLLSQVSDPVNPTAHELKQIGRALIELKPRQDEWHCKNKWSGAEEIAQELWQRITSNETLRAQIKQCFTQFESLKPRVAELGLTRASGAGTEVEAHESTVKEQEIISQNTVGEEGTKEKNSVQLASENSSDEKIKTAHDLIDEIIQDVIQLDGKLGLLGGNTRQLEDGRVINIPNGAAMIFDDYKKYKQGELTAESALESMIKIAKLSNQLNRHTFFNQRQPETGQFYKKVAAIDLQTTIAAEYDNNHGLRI
In words: native gel or EMSA. To be noted: both partners purified. Background: Mobility shift assays separate free from complexed probe on a gel.

Data set [1] concerns the molecule itself. In words: SEC; […]; 20 mM Tris-HCl (pH 7.5) plus 100 mM NaCl or 300 mM NaCl; […]. Background: In gel filtration, larger molecules generally elute earlier.
Data set [2] deals with B1. Put plainly: native gel or EMSA. To be noted: both partners purified.

What is called Kd is the free concentration of one partner at which half of the binding sites on the other are occupied at equilibrium, for simple one-to-one binding. A lower Kd goes with a tighter complex. As to B1, the dissociation constant (Kd) in the data set with VpdB(11-590) was about 400 nM. Besides, the binding result in the data set with SetA is reported as “binds”.

B2: SetA(480-644) (domain or fragment)
chain: GAGTEVEAHESTVKEQEIISQNTVGEEGTKEKNSVQLASENSSDEKIKTAHDLIDEIIQDVIQLDGKLGLLGGNTRQLEDGRVINIPNGAAMIFDDYKKYKQGELTAESALESMIKIAKLSNQLNRHTFFNQRQPETGQFYKKVAAIDLQTTIAAEYDNNHGLRI
In general, stoichiometry N refers to a count of units in the complex or per binding partner. Take B2: the “stoichiometry N” value in data set [1] amounted to 2.

B3: SetA(480-644) (domain or fragment)
chain: GAGTEVEAHESTVKEQEIISQNTVGEEGTKEKNSVQLASENSSDEKIKTAHDLIDEIIQDVIQLDGKLGLLGGNTRQLEDGRVINIPNGAAMIFDDYKKYKQGELTAESALESMIKIAKLSNQLNRHTFFNQRQPETGQFYKKVAAIDLQTTIAAEYDNNHGLRI
On to B3, for which the binding result in data set [2] is on record as “binds”.

Consider ENETLVSSFKQRLQNIKG [(His)10-YFP-SidH(2183-2200)], for which, in data set [2], the binding result was “binds”.

The values above are taken from publication PMC7251119 (Nature Communications, 2020).
